Reference: US6852842B2, “Methods for functional kidney imaging using small dendrimer contrast agents” (The United States of America as represented by the …, priority 2002, dated 2005)

Legend:
[1] = Biodistribution and whole body retention of 153Gd-labeled dendrimer-1B4M-Gd conjugates; assay type: in vivo, nude mice; settings: for cleared from the body within 15 min after injection / excretion from the body, rank among conjugates: mouse, in vivo
Experimental: Radioactive dendrimer conjugates used for biodistribution studies were prepared as follows. ^153GdCl3 containing no other stable isotope of Gd (III) was purchased from NEN DuPont (Boston, Mass.). Approximately 1,500 μg of each dendrimer (containing 2 μmol of 1B4M) was reacted with 1.11 MBq (30 μCi) of ^153Gd citrate (46 pmol) in 0.3 M citrate buffer at pH 5 for 30 min at room temperature. The preparation was then mixed with a 3-fold molar excess of non-radiolabeled Gd(III) citrate (6 μmol) to conjugate 1B4M to fully saturate the chelating groups with Gd(III). This reaction was incubated for 30 min before the addition of ethylenediaminetetraacetic acid (EDTA) and subsequent column purification. To remove any non-incorporated free metal, 10 μl of 0.5 M EDTA (Sigma, St. Louis, Mo.) was added to minimized formation of Gd(OH)3 precipitate. The product was purified using a PD-10 column (Pharmacia, Uppsala, Sweden), eluting with PBS, (pH 7.4). The radio-purity of each preparation was analyzed by size-exclusion HPLC using a TSK G3000SW column (TosoHaas, Philadelphia, Pa.; 0.1 M PBS; 0.01 M KCl; pH 7.4; 1 ml/min). DTPA (Sigma) was also labeled with ^153Gd in 0.3-M citrate buffer for 30 min at room temperature. The radiolabeling yields of all preparations ranged from 47% to 55%. The radio-purity of all preparations analyzed by size-exclusion HPLC was greater than 97%.
Seven groups of nude mice (n=4 in each group) were injected with 37 kBq (1 μCi)/200 μl of ^153Gd-labeled dendrimer-1B4M-Gd conjugates or ^153Gd-DTPA. The injected samples were added to non-radioactive preparations and the total gadolinium dose was adjusted to 0.02 mmol Gd/kg, 20% of the dose of Gd-[DTPA]-dimeglumine routinely used clinically. The mice were sacrificed 15 min after the injection of the ^153Gd-labeled preparations and biodistribution studies were performed. The data were expressed as the percentage of the injected dose per gram (% ID/g) of tissue. The carcasses of the mice were also counted to calculate the whole body retention (% ID).

[2] = Contrast-enhanced dynamic whole body 3D-micro-MRI of mice; assay type: in vivo, nude mice; settings: 0.03 mmol Gd/kg, all times up to 15 min
Experimental: To evaluate the whole body pharmacokinetics of the contrast agents, seven groups of 8-week-old female nude mice (n=4 in each group) (NCI, Frederick, Md.) were used to obtain contrast-enhanced dynamic 3D-micro-MR images. […] All images were obtained using the high-resolution wrist coil (GE) with a custom mouse holder using a clinical-grade 1.5-tesla superconductive magnet unit (Signa LX, General Electric Medical System, Milwaukee, Wis.). The mice were anesthetized with 1.15 mg of sodium pentobarbital (Dainabot, Osaka, Japan) and placed in the center of the coils. The fast spoiled gradient echo technique ([…] 19.4/4.2; flip angle 60°; scan time 1'40''; phase encoding steps 256×256; 3 number of excitations; slab thickness 12) with chemical fat-suppression technique and serial 3D data acquisition was used to acquire images every 2 min from 0 (immediately after injection) to 14 min after injection of the contrast agents for all mice studies. The coronal images for dynamic MRI were reconstructed with 2-mm section thickness without gap reconstruction. In addition, slice data was processed into 3D images with the maximum intensity […] (MIP) method (Advantage Windows, General Electric Medical System).

COX-2 knock-out mice = experiment: Contrast-enhanced dynamic 3D-micro-MRI of mice with chronic renal failure; assay type: in vivo; settings: 0.03 mmol Gd/kg i.v., images over 14 min post-injection
Experimental: To determine if dendrimer-enhanced MR imaging according to the disclosure could detect chronic kidney failure and renal cysts, serial dynamic MR images of normal and 7 month old COX-2 knock-out mice (n=4) were obtained. The later mice have renal cysts and chronic renal failure. The contrast-enhanced dynamic MRI scans were obtained using the fast spoiled gradient echo technique (efgre3d; TR/TE 20.4/7.2; TI49; flip angle 30°; scan time 1′52″; phase encoding steps 512×256; 3 NEX; slab thickness 16) with fat-suppression technique following intravenous injection of 0.03 mmol Gd/kg G4-(1B4M-Gd)64. Serial multi-slice 3D data was obtained over a period of 14 min post-injection of the contrast agents for all mice studied. The width of the cortex and outer stripe of the outer medulla were measured. The combined width of the cortex and outer medulla measured by PAMAM-G4 enhanced MR imaging was much smaller in COX-2 knockout mice (left) than normal mice (right), and correlated with histological thickness (obtained at the time of sacrifice). […] These images show the thicker width of the cortex and outer medulla in the normal mice (FIG. 7a) in comparison to the COX-2 knockout mice (FIG. 7b). […] Thus, contrast-enhanced dynamic 3D-micro-MR imaging can be used to detect chronic renal failure and renal cysts.

[3] = mice; cited from earlier work
[4] = in vivo; cited from earlier work
kidneys of mice = experiment: Serial dynamic high-resolution MR imaging of the kidneys of mice; assay type: in vivo
Experimental: The mice were anesthetized with 1.15 mg of sodium pentobarbital (Dainabot, Osaka, Japan) and placed in the center of the coils. The fast spoiled gradient echo technique ([…] 71; flip angle 30°; scan time 3'07''; phase encoding steps 512×256; 2 number of excitations; slab thickness 16) with fat-suppression technique and serial 3D data acquisition was used to acquire images every 3.1 min from 0 (immediately after injection) to 12 min after injection of the contrast agents for all mice studied. The coronal images were reconstructed with 0.6-mm thick sections with a 0.3-mm overlap reconstruction. The field of view was 6×3 cm and the size of the matrix was 512×256. The reproducibility of the experiments (two mice in each group) was confirmed by repeating the experiments under the same conditions using a different 1.5-tesla superconductive MRI instrument (Signa Horizon, GE).

In the case of DAB-Am16-(Gd-1B4M)16 [DAB-G2], the “cleared from the body within 15 min after injection” value (“cleared from the body within 15 min” below) [1] is reported as “Greater than 60 % ID” and the “excretion from the body, rank among conjugates” value (shortened to “excretion from the body”) [1] is reported as “most rapidly excreted”.
In the case of PAMAM-G4D-(Gd-1B4M)64, the “MRI signal intensity in the left ventricle of the heart” value [2] is listed as “highest”, the “combined width of the cortex and outer medulla in COX-2 knockout mice vs normal mice by enhanced MR imaging” value (COX-2 knock-out mice) is listed as “much smaller” and the “injected dose excreted during the first two days following administration” value [3] is listed as 20 % ID.
For DAB-Am-32-(Gd-1B4M)32 [DAB-G3], the “cleared from the body within 15 min” value [1] was “Greater than 60 % ID” and the “excretion from the body” value [1] was “most rapidly excreted”.
In the case of `O=C([O-])CN(CCN(CC(=O)[O-])CC(=O)O)CCN(CC(=O)[O-])CC(=O)O.[153Gd+3]` [Gd-DTPA, reference compound], the “amount of 153Gd-labeled agent remaining in the blood” value ([1]; nude mice, 15 min after injection, 0.02 mmol Gd/kg) is reported as 2.7±0.1 % ID/g.
For PAMAM-G2D-(Gd-1B4M)16, the “cleared from the body within 15 min” value [1] was “Greater than 60 % ID” and the “excretion from the body” value [1] was “most rapidly excreted”.
For DAB-Am-64-(Gd-1B4M)64 [DAB-G4], the “accumulation in the kidney vs PAMAM-G4D-(1B4M)64” value [4] is given as “less” and the “accumulation in the liver vs PAMAM-G4D-(1B4M)64” value [4] is given as “significantly more”.
For `CNC[C@H](O)[C@@H](O)[C@H](O)[C@H](O)CO.CNC[C@H](O)[C@@H](O)[C@H](O)[C@H](O)CO.O=C([O-])CN(CCN(CC(=O)[O-])CC(=O)O)CCN(CC(=O)[O-])CC(=O)O.[Gd+3]` [Gd-[DTPA]-dimeglumine, Gd-DTPA-dimeglumine], the “visualization of the proximal straight tubule of the kidney” value (kidneys of mice; double dose 0.06 mmol Gd/kg) was “not visualized”, the “bright white band at the outer stripe of the outer medulla” value (kidneys of mice; high-resolution coronal images, dendrimers 0.03 mmol Gd/kg, Gd-[DTPA]-dimeglumine 0.03 or 0.06 mmol Gd/kg) was “not observed” and the “MRI signal from the renal pelvis region” value (kidneys of mice; higher doses, e.g. 0.1 mmol Gd/kg) was “loss of signal”.
